# Assay results taken from patent publication US10328114B2, “Lung injury repair compositions and methods” (University of Iowa Research Foundation, priority 2015, dated 2019).
# “Also recorded” adds a separate entry of the source. *: point of attachment. Myristoyl = CCCCCCCCCCCCCC(=O)*
# Key:
# [1] = test system: active transforming growth factor beta (TGFβ); test: Active TGFβ ELISA in bleomycin ALI model; assay type: in vivo, mouse
# Description: (§1) Animal protocols were approved by the Institutional Animal Care and Use Committee at the University of Iowa. C57BL/6 mice (Jackson Laboratories, Bar Harbor, Me.) were anesthetized followed by intratracheal instillation of: (A) Control (Ctrl): 1 μl of DMSO (Sigma, St. Louis, Mo.) plus 49 μl of PBS; (B) Bleomycin (Bleo): 1 μl of DMSO plus 49 μl of bleomycin (APP pharmaceuticals, LLC Schaumburg, Ill.) dissolved in PBS (4 U/kg); (C) Bleomycin/PKCζi (Bleo/PKCζi): 1 μg of PKCζi (Calbiochem EMD Biosciences, San Diego, Calif.) solubilized in 1 μl of DMSO plus 49 μl of bleomycin (4 U/Kg) dissolved in PBS (Calbiochem EMD Biosciences, San Diego, Calif.). After this treatment, all mice were instilled (50 μl) every 72 hours with 1 μl of DMSO plus 49 μl of PBS in the Ctrl and Bleo group or with 1 μg of PKCζi dissolved in 1 μl of DMSO plus 49 μl of PBS in the Bleo/PKCζi group for the duration of the experiment. Mice were treated for up to 6 weeks (FIG. 1A). All conditions had between 4 to 6 animals.
# Mouse IL-1β and active transforming growth factor beta (TGFβ) were measured using an ELISA from R&D Biosystems (Minneapolis, Minn.).
# PKCζ = target: T1, PKCζ (Mus musculus, UniProt Q02956); test: PKCζ activation (p-PKCζ) in lungs, bleomycin induced ALI mouse model, Western blot and immunofluorescence; assay type: in vivo; settings: for activation of PKC-ζ in vivo: lungs harvested at 1, 3 and 6 weeks, Western blot and immunofluorescence
# T1 construct: from tissue; host or cells: lungs of C57BL/6 mice (lung homogenates and frozen lung sections)
# T1 sequence (Q02956 1-592): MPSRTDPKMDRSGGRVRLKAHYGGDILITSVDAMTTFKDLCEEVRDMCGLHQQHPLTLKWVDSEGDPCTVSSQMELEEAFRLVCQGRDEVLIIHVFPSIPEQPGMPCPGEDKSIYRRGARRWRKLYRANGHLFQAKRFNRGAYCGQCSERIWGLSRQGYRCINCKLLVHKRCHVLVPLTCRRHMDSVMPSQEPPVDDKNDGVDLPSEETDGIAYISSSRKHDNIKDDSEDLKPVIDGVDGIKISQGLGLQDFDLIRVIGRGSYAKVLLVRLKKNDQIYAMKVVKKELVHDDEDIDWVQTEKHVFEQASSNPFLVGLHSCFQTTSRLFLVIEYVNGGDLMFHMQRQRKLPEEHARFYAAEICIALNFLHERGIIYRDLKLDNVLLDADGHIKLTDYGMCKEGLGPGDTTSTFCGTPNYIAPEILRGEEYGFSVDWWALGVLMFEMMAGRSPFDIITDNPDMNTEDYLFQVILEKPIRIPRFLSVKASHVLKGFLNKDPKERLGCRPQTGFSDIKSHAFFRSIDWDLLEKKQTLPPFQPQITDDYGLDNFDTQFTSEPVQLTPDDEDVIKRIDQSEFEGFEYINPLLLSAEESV
# Description: Mice were randomly divided into four groups: (i) control: PBS plus DMSO (1 μl/mouse) (ii) PKC-ζ pseudosubstrate inhibitor (PKC-ζ ps) (1 μg/mouse suspended in DMSO), a pharmacological inhibitor that competes for the pseudosubstrate domain which give specificity to several PKCζ isoforms (Hofmann, J. (1997). “The potential for isoenzyme-selective modulation of protein kinase C.” FASEB J 11(8): 649-669); (iii) bleomycin: bleomycin suspended in PBS (4 U/kg); and (iv) Bleomycin+PKCζi: bleomycin (4 U/kg) plus (1 μg/mouse) PKCζi. The above conditions were administered intratracheally (50 μL) to 6-8 wk-old mice after 2-5 min of anesthesia with 4% isoflurane via a precision Fortec vaporizer (Cyprane, Keighley, UK). Treatment with DMSO or PKCζi was administered every 72 hours and followed for up to 6 weeks. At 1, 3, and 6 weeks mice were euthanized and lungs harvested.
# as §1
# Western blot analysis was performed using Phospho-(Ser) PKCζ substrate rabbit monoclonal antibody (Cell Signaling, Beverly, Mass.), total PKCζ rabbit polyclonal antibody (Santa Cruz Biotechnology, Dallas, Tex.) and mature surfactant protein C (SPC) rabbit polyclonal antibody (Seven Hill Bioreagents, Cincinnati, Ohio).
# After dissection, immunofluorescence labeling was performed on frozen mouse lung tissue sections with polyclonal anti p-PKCζ (Santa Cruz Biotechnology, Dallas, Tex.) or monoclonal β4 antibody (Clone 346-11a, BD Biosciences, San Jose, Calif.) (23). In addition, Terminal deoxynucleotidyltransferase dUTP nick end labeling (TUNEL) staining was performed on week 1 mouse lung tissue sections (24).
substance,measurement,setting,value
N-Myristoyl-Ser-Ile-Tyr-Arg-Arg-Gly-Ala-Arg-Arg-Trp-Arg-Lys-Leu-OH (Myristoyl-SIYRRGARRWRKL-OH; SMILES CCCCCCCCCCCCCC(=O)N[C@@H](CO)C(=O)N[C@H](C(=O)N[C@@H](Cc1ccc(O)cc1)C(=O)N[C@@H](CCCNC(=N)N)C(=O)N[C@@H](CCCNC(=N)N)C(=O)NCC(=O)N[C@@H](C)C(=O)N[C@@H](CCCNC(=N)N)C(=O)N[C@@H](CCCNC(=N)N)C(=O)N[C@@H](Cc1c[nH]c2ccccc12)C(=O)N[C@@H](CCCNC(=N)N)C(=O)N[C@@H](CCCCN)C(=O)N[C@@H](CC(C)C)C(=O)O)[C@@H](C)CC) [PKCζi],active TGF β,[1]; week 3 post injury,no difference in active TGF β and hydroxyproline concentrations compared to bleomycin group; also recorded: does not prevent bleomycin induced TGF β activation
same,active TGF β,"[1]; week 3 post injury, listed as PKC-ζi",significantly elevated in both groups
same,active TGF β,[1]; week 6,prevents bleomycin induced active TGF β at week 6
same,activation of PKC-ζ in vivo,PKCζ,prevents activation of PKCζ in vivo
same,activation of PKC-ζ in vivo,PKCζ; listed as PKC-ζi,prevented the activation of PKC-ζ
same,"p-PKCζ / total PKCζ, Western blot densitometry of lung homogenates","PKCζ; week 1, PKCζi 1 μg intratracheal every 72 hours, vs Bleo group",prevented bleomycin induced increased ratio p-PKC/total PKCζ; also recorded: decreased p-PKCζ at week 1 compared to Bleo group
same,p-PKCζ immunostaining intensity in lung,"PKCζ; week 3 and 6, vs bleomycin group",did not have any increase in p-PKCζ at week 3; also recorded: decreased intensity in the Bleo/PKCζi group compared to bleomycin group at week 3 and 6
